# Source: patent publication US12624112 (MABWELL SHANGHAI BIOSCIENCE, dated 2026)
# Substitutions are numbered along the chain they refer to.
# B1: 5888-116H1+L1 (antibody, V domains shown)
# VH: QVQLQQSGAELVRPGASVTLSCKASGYTFTDSEMYWVRLTPVHGLEWIGAIDPETGDTAFNQKFKGKATLTADKSSSTAYMELRSLTSEDSVVYYCTRAFDNDNDDGFAYWGQGTLVTVSA
# VL: QIVMTQSPAIMSASPGEKVTMTCSASSSVNYMHWYQQKSGTSPKRWIYDTSKLASGVPARFSGSGSGTSYSLTISSMEAEDAATYYCQQWSSNPLTFGAGTKLELK
# notes: murine antibody
# B2: 5888-153H1+L2 (antibody, V domains shown)
# VH: QVQLQQSGAELVRPGASVTLSCKASGYTFTDYELHWVKQTPVHGLEWIGTIDPETGDTVYNQKFKAKAILTADKSSSTAYMEFRSLTSEDSAVCYCTRAFYNDYDDGFAYWGQGTLVTVSA
# VL: B1 VL with S7T, A25V, N30S, S75N, S76N, S91N, N93S
# notes: murine antibody
# B3: 5886-156H+L (antibody, V domains shown)
# VH: DVQLQQSGPGLVKPSQSLSLTCTVTGYSITSDYAWNWIRQFPGNKLEWMGYIDYSGSTTYNPSLKSRFSITRDTSKNQFFLQLNSVTTEDTATYYCASTVIDSMDYWGQGTSVTVSS
# VL: DIVLTQSPASLAVSLGQRATISCRASKSVSTSGHSYMHWYQQKPGQPPKLLIYLASNLESGVPARFSGSGSGTDFTLNINPMEEEDAATYYCQHSREFPFTFGSGTKLEIK
# notes: murine antibody
# B4: 5887-41H+L (antibody, V domains shown)
# VH: B3 VH with N36D, D53R, S57D, T59Y, F68I, S98T, V100M, I101M, S103T
# VL: B3 VL with A12T, H34N, N80H, M82V, F100L, S104A, I110L
# notes: murine antibody
# B5: 5887-537H3+L1 (antibody, V domains shown)
# VH: QVTLKESGPGILQPSQTLSLTCSFSGFSLSTSGMGVGWIRQPSGKGLEWLAHIWWDDVKQYNPALKSRLTISKDTSSSQVFLKSASVDTADTATYYCARIGGDYDYFDFWGQGTTLTVSS
# VL: DIVLTQSPASLAVSLGQRATISCRASESVEYSGTSLMQWYQQKPGQPPKLLIYVASNVESGVPARFSGSGSGTDFSLNIHPVEEDDIAMYFCQQSRKVPWTFGGGTKLEIK
# notes: murine antibody; also called 5887-537H3H+L1
# B6: Control antibody CNTO7160 (antibody, human IgG4 S228P, kappa, V domains shown)
# VH: EVQLLESGGGLVQPGGSLRLSCAASGFTFSIYDMIWVRQAPGKGLEWVSSIRGEGGGTYYADSVKGRFTISRDNSKNTLYLQMNSLRAEDTAVYYCARDPWSTEGSFFVLDYWGQGTLVTVSS
# VL: EIVLTQSPATLSLSPGERATLSCRASQSVDDDLAWYQQKPGQAPRLLIYDASNRATGIPARFSGSGSGTDFTLTISSLEPEDFAVYYCQQYITAPLTFGQGTKVEIKR
# Legend:
# ST2 on KU812 cells [1] = target: T1, ST2 on KU812 cells (UniProt Q01638 19-556, limits assumed); assay: cell-based or functional assay
# T1 sequence (looked up): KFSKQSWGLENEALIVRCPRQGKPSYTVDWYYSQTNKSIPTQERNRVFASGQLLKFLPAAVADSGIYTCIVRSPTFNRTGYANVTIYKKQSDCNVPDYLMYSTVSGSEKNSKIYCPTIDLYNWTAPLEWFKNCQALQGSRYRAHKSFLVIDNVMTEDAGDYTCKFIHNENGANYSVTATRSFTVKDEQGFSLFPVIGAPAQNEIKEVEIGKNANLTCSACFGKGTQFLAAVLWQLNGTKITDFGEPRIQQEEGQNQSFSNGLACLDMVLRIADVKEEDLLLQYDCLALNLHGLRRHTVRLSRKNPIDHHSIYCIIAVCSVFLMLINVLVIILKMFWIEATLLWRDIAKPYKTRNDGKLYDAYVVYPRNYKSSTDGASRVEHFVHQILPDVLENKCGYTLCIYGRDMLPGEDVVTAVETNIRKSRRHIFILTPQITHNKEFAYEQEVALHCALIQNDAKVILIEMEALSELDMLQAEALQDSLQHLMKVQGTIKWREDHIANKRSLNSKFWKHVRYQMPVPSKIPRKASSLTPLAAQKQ
# ST2 on KU812 cells [2] = target: T1, ST2 on KU812 cells; assay: cell-based or functional assay; remark: listed apart in the source
# Cyno ST2-fc [3] = target: T2, Cyno ST2-fc (cyno; human, UniProt A0A2K5UDB8 19-331); assay: ELISA, coated cyno ST2-fc
# T2 construct: also called cyno ST2 fused with a human IgG1 Fc tag at the C-terminus
# T2 sequence: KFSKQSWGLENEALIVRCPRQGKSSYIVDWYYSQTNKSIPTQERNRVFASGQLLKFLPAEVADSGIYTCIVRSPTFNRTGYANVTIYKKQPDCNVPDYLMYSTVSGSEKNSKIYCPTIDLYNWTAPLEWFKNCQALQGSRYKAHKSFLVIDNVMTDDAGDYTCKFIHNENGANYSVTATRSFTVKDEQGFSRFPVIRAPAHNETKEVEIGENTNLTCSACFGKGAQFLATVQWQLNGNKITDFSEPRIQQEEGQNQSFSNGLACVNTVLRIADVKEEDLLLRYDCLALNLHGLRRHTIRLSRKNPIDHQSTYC
# Method: Cyno ST2-fc was diluted with a coating buffer to 1 μg/mL, added into 96-well plates at 50 μL/well and coated overnight at 4° C. Next day, the coated plates were taken, washed with PB ST for 3 times, and then incubated using a blocking buffer at room temperature for 1 hr. Subsequently, the plates were washed with PBST for 3 times again. Starting at 1000 ng/mL, each murine antibody was diluted 3-fold to obtain serial dilutions of 8 concentrations in total which were then added into the 96-well plates at 50 μL/well. The plates were incubated at room temperature for 1 hr, washed with PB ST for 3 times; and then a goat anti-mouse secondary antibody (1:10000) was added at 50 μL/well into the 96-well plates which subsequently were incubated at room temperature for 1 hr. The 96-well plates were washed with PB ST for 3 times, and TMB was added at 50 μL/well to develop color in dark for 10 min. Afterwards, 2 M sulfuric acid was added to stop reaction; and GD values at 450 nm were read by a microplate reader. It can be seen that the murine antibodies can bind to cyno ST2, with a binding trendency consistent with the binding to human ST2.
# Human ST2-his [4] = target: T3, Human ST2-his (human, UniProt Q01638 19-328); assay: ELISA, coated human ST2-his
# T3 construct: Expressed in CHO-K1; also called human ST2 fused with a 6-histidine tag at the C-terminus
# T3 sequence: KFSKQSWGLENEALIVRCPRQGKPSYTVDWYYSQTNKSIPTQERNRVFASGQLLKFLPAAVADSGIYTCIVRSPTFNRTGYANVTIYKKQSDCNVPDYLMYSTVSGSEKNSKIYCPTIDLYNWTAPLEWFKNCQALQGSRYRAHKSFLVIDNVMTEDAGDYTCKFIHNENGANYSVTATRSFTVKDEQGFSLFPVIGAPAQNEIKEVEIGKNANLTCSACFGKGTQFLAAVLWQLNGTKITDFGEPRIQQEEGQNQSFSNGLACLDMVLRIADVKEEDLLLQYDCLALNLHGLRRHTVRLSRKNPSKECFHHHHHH
# Method: Human ST2-his was diluted with a coating buffer to 1 μg/mL, added into plates at 50 μL/well, and coated overnight at 4° C. Next day, the coated plates were taken, washed with PBST for 3 times, and then incubated using a blocking buffer at room temperature for 1 hr. Subsequently, the plates were washed with PBST for 3 times again. Starting at 100 ng/mL, each murine antibody was diluted 3-fold to obtain serial dilutions of 8 concentrations in total which were then added into the 96-well plates at 50 μL/well. The plates were incubated at room temperature for 1 hr, washed with PBST for 3 times; and then a goat anti-mouse secondary antibody (1:10000) was added at 50 μL/well into the 96-well plates which subsequently were incubated at room temperature for 1 hr. The 96-well plates were washed with PBST for 3 times, and TMVB was added at 50 μL/well to develop color in dark for 10 min. Afterwards, 2 M sulfuric acid was added to stop reaction; and GD values at 450 nm were read by a micro-plate reader.
# Human ST2-fc (human) = Human ST2-fc (human) (UniProt Q01638); assay: competition ELISA, coated ST2-fc, competitor IL33-his
# Cyno ST2-fc [5] = target: T2, Cyno ST2-fc; assay: SPR Biacore X100, antibody on CM5, cyno ST2-fc analyte
# Method: The experiment on the interactions between the anti-human ST2 antibodies and cyno ST2-fc was performed using Biacore X100, and was carried out at 25° C. in HBS-EP (1×) buffer (pH 7.4). Each antibody was immobilized on the surface of CM5 chip using an amino coupling kit. Following the antibody immobilization, a solution of cyno ST2-fc (2-fold gradient dilution from a starting concentration of 8 nM, to obtain 6 concentrations in total; the starting concentration might be increased if the signal of some sample was too low) was injected. Association was monitored for 2 min and dissociation for 10 min, and the sensor surface was regenerated by injecting a solution of glycine at pH 1.5.
# Human ST2-his [6] = target: T3, Human ST2-his; assay: SPR Biacore X100, antibody on protein A, ST2-his analyte
# Method: On the basis of the results of the quantitative screenings of murine antibodies above together, 19 murine antibodies were selected for affinity determination and in vitro pharmacological study. The experiment on the interaction between the anti-human ST2 antibodies and human ST2-his was performed using Biacore X100, and was carried out at 25° C. in HBS-EP (1×) buffer (pH 7.4).
# Each anti-human ST2 antibody was diluted to 10 nM and captured on the surface of a protein A chip (for a capture time of 60 s). […] Association was monitored for 4 min and dissociation for 10 min, and the sensor surface was regenerated by injecting a solution of glycine at pH 2.0. Data generated for kinetics and affinity assay were analyzed using BIAevaluation software.
"IC50, activation of KU812-NF-κB reporter gene by IL33 (ST2 on KU812 cells [1])","Relative activity (%) compared with CNTO7160, KU812-NF-κB reporter (ST2 on KU812 cells [1])","Maximum inhibition rate (%), KU812 IL-5 production (ST2 on KU812 cells [2])","Relative activity (%), KU812 IL-5 production (ST2 on KU812 cells [2])",EC50 (Cyno ST2-fc [3]),Relative activity (%) (Cyno ST2-fc [3]),EC50 (Human ST2-his [4]),Relative activity (%) compared with CNTO7160 (Human ST2-his [4]),IC50 (Human ST2-fc (human)),Relative activity (%) compared with CNTO7160 (Human ST2-fc (human)),Kd (Cyno ST2-fc [5]),koff (Cyno ST2-fc [5]),kon (Cyno ST2-fc [5]),Kd (Human ST2-his [6]),koff (Human ST2-his [6]),kon (Human ST2-his [6]),Binder
0.206 µg/mL,122%,81.4%,238%,0.0384 µg/mL,63.7%,0.0288 µg/mL,63.4%,0.9 µg/mL,65.2%,46.9 pM,0.000382 s⁻¹,8.14e+06 M⁻¹ s⁻¹,113 pM,0.00111 s⁻¹,9.87e+06 M⁻¹ s⁻¹,B1
0.0495 µg/mL,506%,86%,115%,0.0303 µg/mL,80.7%,0.0209 µg/mL,87.4%,0.75 µg/mL,78.4%,143 pM,0.00139 s⁻¹,9.68e+06 M⁻¹ s⁻¹,94.3 pM,0.000864 s⁻¹,9.17e+06 M⁻¹ s⁻¹,B2
0.00804 µg/mL,127%,84.2%,304%,0.0203 µg/mL,66.4%,0.0161 µg/mL,131%,1.14 µg/mL,76.6%,206 pM,0.000747 s⁻¹,3.62e+06 M⁻¹ s⁻¹,461 pM,0.00109 s⁻¹,2.37e+06 M⁻¹ s⁻¹,B3
0.00287 µg/mL,41.9%,79.2%,128%,0.0615 µg/mL,21.9%,0.0266 µg/mL,97.9%,1.29 µg/mL,82.7%,90.3 pM,0.000721 s⁻¹,7.98e+06 M⁻¹ s⁻¹,560 pM,0.000613 s⁻¹,1.1e+06 M⁻¹ s⁻¹,B4
0.101 µg/mL,40.2%,62.2%,767%,0.0171 µg/mL,78.5%,0.0123 µg/mL,72.4%,0.99 µg/mL,93.5%,80.7 pM,0.000511 s⁻¹,6.33e+06 M⁻¹ s⁻¹,168 pM,0.00084 s⁻¹,5.01e+06 M⁻¹ s⁻¹,B5
–,–,89%,–,–,–,–,–,–,–,136 pM,0.000221 s⁻¹,1.63e+06 M⁻¹ s⁻¹,698 pM,0.000539 s⁻¹,827000 M⁻¹ s⁻¹,B6
